According to patent US20030125523A1 (VEGENICS, published 2003):

Experiments:
[1] = target: NP-1 expressed on PAE-NP-1 cells (UniProt O14786); test: competition of 125I-hVEGF165 (1 ng/ml) binding to PAE-NP-1 cells by 20 µg/ml GST fusion
[2] = target: T1, soluble Neuropilin-1-Ig fusion protein (extracellular domain of mouse NP-1 fused to the human IgG Fc-part) (mouse; human, UniProt P97333 22-856); test: precipitation of 35S-labelled growth factor with NP-1-Ig on protein A sepharose, SDS-PAGE (FIG. 6)
T1 construct: extracellular domain; Made in transfected 293T cells and captured on protein A sepharose; also called NP-1-Ig; soluble NP-1-Ig; not shown: human IgG Fc-part encoded by the pIgplus vector (Ingenius)
T1 sequence (looked up): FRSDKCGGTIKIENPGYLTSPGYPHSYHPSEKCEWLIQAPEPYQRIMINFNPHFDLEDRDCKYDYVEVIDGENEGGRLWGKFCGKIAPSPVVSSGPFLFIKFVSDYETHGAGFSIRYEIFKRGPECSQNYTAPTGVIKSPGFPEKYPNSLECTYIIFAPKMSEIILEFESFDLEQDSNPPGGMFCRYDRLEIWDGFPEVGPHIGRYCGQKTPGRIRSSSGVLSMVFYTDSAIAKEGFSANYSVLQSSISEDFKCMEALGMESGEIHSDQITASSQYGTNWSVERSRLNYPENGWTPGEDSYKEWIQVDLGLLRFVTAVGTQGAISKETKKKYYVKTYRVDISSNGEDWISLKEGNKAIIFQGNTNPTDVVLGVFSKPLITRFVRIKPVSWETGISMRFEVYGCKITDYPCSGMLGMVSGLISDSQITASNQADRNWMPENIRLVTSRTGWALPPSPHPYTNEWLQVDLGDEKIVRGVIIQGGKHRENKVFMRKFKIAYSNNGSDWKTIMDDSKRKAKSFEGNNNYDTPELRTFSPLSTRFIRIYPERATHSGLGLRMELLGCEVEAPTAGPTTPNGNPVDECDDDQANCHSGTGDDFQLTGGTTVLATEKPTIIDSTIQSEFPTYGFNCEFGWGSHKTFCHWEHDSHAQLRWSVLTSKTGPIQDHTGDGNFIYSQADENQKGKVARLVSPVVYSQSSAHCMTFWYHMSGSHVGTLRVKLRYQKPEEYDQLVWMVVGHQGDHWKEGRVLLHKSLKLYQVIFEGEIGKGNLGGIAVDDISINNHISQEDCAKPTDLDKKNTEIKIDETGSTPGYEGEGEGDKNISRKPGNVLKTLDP

[3] = target: T1, soluble Neuropilin-1-Ig fusion protein …; test: precipitation of 35S-labelled growth factor from conditioned medium with NP-1-Ig on protein A sepharose, SDS-PAGE
[4] = target: T1, soluble Neuropilin-1-Ig fusion protein …; test: precipitation of 35S-labelled growth factor with NP-1-Ig on protein A sepharose, SDS-PAGE (FIG. 7)
[5] = target: T1, soluble Neuropilin-1-Ig fusion protein …; test: precipitation of 35S-labelled growth factor from conditioned medium with NP-1-Ig on protein A sepharose, SDS-PAGE (FIG. 3)
Method: 293-T or 293EBNA cells were similarly transfected with plasmids encoding hVEGF₁₆₅, mVEGF-B₁₆₇, mVEGF-B₁₈₆, hVEGF-C, hVEGF-D, PlGF-1 or PlGF-2, and the transfected cells were metabolically labeled 24 hours post transfection with 100 μCi/ml Pro-mix TML-³⁵S (Amersham) for 6 to 7 hours. 10 μg/ml heparin was added to the labeling medium to facilitate the release of the heparin sulphate-binding growth factors from the cell surface and pericellular matrix. Metabolically labeled media, with the exception of the medium used for VEGF transfection, were immunodepleted of endogenous VEGF by immunoprecipitating with VEGF antibody for two hours. Similar amounts of media containing the metabolically labeled growth factors were then used for immunoprecipitation or for receptor binding analysis. Growth factors were incubated for 3 hours at room temperature with receptor-Igs in binding buffer (phosphate buffered saline (PBS), 0.5% BSA, 0.2% Tween 20). The sepharose beads were then washed once with ice cold binding buffer and three times with PBS and analyzed by 15% SDS-PAGE.
Immunoprecipitations were carried out using specific antibodies against VEGF₁₆₅, VEGF-B₁₆₇, VEGF-B₁₈₆, VEGF-C, VEGF-D and protein A sepharose. […] In contrast, no significant binding was detected between NP-1-Ig and hVEGF-D or PlGF-1. […]

Sequence of NP-1 expressed on PAE-NP-1 cells (O14786 22-923 limits assumed): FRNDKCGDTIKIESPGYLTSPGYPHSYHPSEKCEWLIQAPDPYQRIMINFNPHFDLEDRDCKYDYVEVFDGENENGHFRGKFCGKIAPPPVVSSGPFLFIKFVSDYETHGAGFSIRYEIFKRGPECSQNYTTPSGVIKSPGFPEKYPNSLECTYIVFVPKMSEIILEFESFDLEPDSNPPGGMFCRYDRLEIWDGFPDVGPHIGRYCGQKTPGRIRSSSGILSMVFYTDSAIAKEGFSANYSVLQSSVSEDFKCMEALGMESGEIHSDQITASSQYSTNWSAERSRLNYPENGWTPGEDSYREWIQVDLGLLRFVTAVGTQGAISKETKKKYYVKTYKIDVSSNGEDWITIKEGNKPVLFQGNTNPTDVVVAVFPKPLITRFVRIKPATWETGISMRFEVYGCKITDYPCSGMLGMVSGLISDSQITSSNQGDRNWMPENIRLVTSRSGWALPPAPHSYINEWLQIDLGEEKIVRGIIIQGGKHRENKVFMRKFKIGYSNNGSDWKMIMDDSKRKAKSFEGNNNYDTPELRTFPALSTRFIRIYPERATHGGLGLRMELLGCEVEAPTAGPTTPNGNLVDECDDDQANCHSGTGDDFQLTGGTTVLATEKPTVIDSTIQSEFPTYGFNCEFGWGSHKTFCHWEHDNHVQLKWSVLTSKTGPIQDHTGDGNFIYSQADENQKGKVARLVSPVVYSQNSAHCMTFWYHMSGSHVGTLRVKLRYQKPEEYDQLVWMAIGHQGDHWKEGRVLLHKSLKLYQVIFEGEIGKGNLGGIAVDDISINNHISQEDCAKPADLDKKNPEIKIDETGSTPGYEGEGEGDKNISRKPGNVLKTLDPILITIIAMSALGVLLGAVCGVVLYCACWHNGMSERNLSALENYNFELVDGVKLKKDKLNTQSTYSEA

For “GST-VEGF-B167 exon 6B fusion protein (GST fused to amino acids 117-161 of mVEGF-B167) (from UniProt P49766 117-161)”, the percent competition [1] was 50%.

B1: mVEGF-BkEx1-5 (ligand, mouse, UniProt P49766 22-136, looked up)
chain: PVSQFDGPSHQKKVVPWIDVYARATCQPREVVVPLSMELMGNVVKQLVPSCVTVQRCGGCCPDDGLECVPTGQHQVRMQILMIQYPSSQLGEMSLEEHSQCECRPKKKESAVKPD
notes: domain: exons 1-5; also called murine VEGF-BkEx1-5; construct containing exons 1-5 of murine VEGF-B
B1: no binding [2].

B2: human VEGF165 (ligand, UniProt P15692-4 27-191, looked up)
chain: APMAEGGGQNHHEVVKFMDVYQRSYCHPIETLVDIFQEYPDEIEYIFKPSCVPLMRCGGCCNDEGLECVPTEESNITMQIMRIKPHQGQHIGEMSFLQHNKCECRPKKDRARQENPCGPCSERRKHLFVQDPQTCKCSCKNTDSRCKARQLELNERTCRCDKPRR
notes: also called hVEGF165; rhVEGF165
B2: binds [3].

B3: human VEGF-C (full length) (ligand, UniProt P49767 32-419, looked up)
chain: FESGLDLSDAEPDAGEATAYASKDLEEQLRSVSSVDELMTVLYPEYWKMYKCQLRKGGWQHNREQANLNSRTEETIKFAAAHYNTEILKSIDNEWRKTQCMPREVCIDVGKEFGVATNTFFKPPCVSVYRCGGCCNSEGLQCMNTSTSYLSKTLFEITVPLSQGPKPVTISFANHTSCRCMSKLDVYRQVHSIIRRSLPATLPQCQAANKTCPTNYMWNNHICRCLAQEDFMFSSDAGDDSTDGFHDICGPNKELDEETCQCVCRAGLRPASCGPHKELDRNSCQCVCKNKLFPSQCGANREFDENTCQCVCKRTCPRNQPLNPGKCACECTESPQKCLLKGKKFHHQTCSCYRRPCTNRQKACEPGFSYSEEVCRCVPSYWKRPQMS
notes: 35S labelled, from conditioned medium of transfected cells; also called hVEGF-C; full length VEGF-C
B3: binds [4].

B4: mouse VEGF-B167 (ligand, UniProt P49766-2 22-188, looked up)
chain: PVSQFDGPSHQKKVVPWIDVYARATCQPREVVVPLSMELMGNVVKQLVPSCVTVQRCGGCCPDDGLECVPTGQHQVRMQILMIQYPSSQLGEMSLEEHSQCECRPKKKESAVKPDSPRILCPPCTQRRQRPDPRTCRCRCRRRRFLHCQGRGLELNPDTCRCRKPRK
notes: 35S metabolically labelled, from conditioned medium of transfected cells; also called mVEGF-B167
B4: binds [3].

B5: PlGF-1 (ligand, UniProt P49763-2 19-149, looked up)
chain: LPAVPPQQWALSAGNGSSEVEVVPFQEVWGRSYCRALERLVDVVSEYPSEVEHMFSPSCVSLLRCTGCCGDENLHCVPVETANVTMQLLKIRSGDRPSYVELTFSQHVRCECRPLREKMKPERCGDAVPRR
notes: 35S labelled, from conditioned medium of transfected cells; also called placenta growth factor isoform 1
B5: no binding [5].
